The results in this text go back to paper doi:10.1101/2025.11.17.688825 (bioRxiv, 2025).

This experiment addresses T1, 14-3-3ζ (residues 1-245, 14-3-3ζ-strep, chain of the 14-3-3ζ/ERα^(LBD_F) complex) (human, UniProt P63104 1-245).
T1 sequence: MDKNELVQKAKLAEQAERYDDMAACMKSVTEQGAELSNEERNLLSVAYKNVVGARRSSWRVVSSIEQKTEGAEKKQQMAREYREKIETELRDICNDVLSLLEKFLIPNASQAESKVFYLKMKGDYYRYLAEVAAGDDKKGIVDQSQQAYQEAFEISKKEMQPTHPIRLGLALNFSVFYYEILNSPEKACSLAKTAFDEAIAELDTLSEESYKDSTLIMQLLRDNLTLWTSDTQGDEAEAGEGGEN
As to the kind of experiment: mass photometry.

B1: ERα^(LBD_F) (ERα residues 302-595, S305A, F591R, P592R, phosphorylated T594) (domain or fragment)
chain: KKNALALSLTADQMVSALLDAEPPILYSEYDPTRPFSEASMMGLLTNLADRELVHMINWAKRVPGFVDLTLHDQVHLLECAWLEILMIGLVWRSMEHPGKLLFAPNLLLDRNQGKCVEGMVEIFDMLLATSSRFRMMNLQGEEFVCLKSIILLNSGVYTFLSSTLKSLEEKDHIHRVLDKITDTLIHLMAKAGLTLQQQHQRLAQLLLILSHIRHMSNKGMEHLYSMKCKNVVPLYDLLLEMLDAHRLHAPTSRGGASVEETDQSHLATAGSTSSHSLQKYYITGEAEGRRATV
modifications: phosphorylated T594 (PKA co-expression)
For B1, the “stoichiometry N” value was 1 ERα(LBD_F) per 14-3-3ζ (2:2).
